Measured values reported in patent publication US12710427B2, “Anti-human neurotensin receptor 1 antibody and use thereof” (National Health Research Institutes, priority 2020, dated 2026).

Columns and labels:
[1] = target: T1, NTSR1 (Homo sapiens, UniProt P30989); experiment: Immunohistochemistry staining of PC-3 xenograft tumor tissue; conditions: 2 μg/ml antibody
T1 construct: Solid tumors were excised from PC-3 xenograft mice without treatment, followed by immunohistochemistry staining using antibodies specific for NTSR1; from tissue; host or cells: PC-3 prostate cancer xenograft tumour grown in mice
T1 sequence (P30989 whole entry): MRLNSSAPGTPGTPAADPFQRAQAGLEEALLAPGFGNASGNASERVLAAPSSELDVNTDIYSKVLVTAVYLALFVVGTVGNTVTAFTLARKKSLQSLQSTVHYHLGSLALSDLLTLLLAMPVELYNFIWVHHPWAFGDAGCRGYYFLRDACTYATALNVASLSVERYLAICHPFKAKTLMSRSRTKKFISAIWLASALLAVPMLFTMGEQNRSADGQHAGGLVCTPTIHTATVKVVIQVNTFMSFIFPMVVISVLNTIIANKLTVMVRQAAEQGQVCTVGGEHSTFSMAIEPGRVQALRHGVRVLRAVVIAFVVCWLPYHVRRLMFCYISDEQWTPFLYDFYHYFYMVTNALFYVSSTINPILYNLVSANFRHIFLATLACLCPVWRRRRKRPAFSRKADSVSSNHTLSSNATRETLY
Method: Deparaffinized tissue sections (4 μm) were subjected to heat-induced epitope retrieval in Tris-EDTA buffer (pH 9) at 95° C. for 30 minutes. The sections were blocked with inhibitor CM at 37° C. for 4 minutes. The slides were incubated with primary antibody including 2 μg/ml anti-NTSR1-B12 (SC-376958, Santa Cruz Biotechnology) and different […] antibody clones (7C3, h7C3-2 and h7C3-3) for 1 hour. The slides were then incubated with appropriate secondary antibodies; OmniMap anti-mouse-HRP for anti-NTSR1-B12 and anti-human-HRP for 7C3, h7C3-2 and h7C3-3 at RT for 30 minutes. The staining was performed with diamino-benzidine tetrahydrochloride.

[2] = test system: NTSR1-expressing A549 cancer cells; experiment: Internalization of h7C3-3 or h7C3-3-ADC in A549 cells (flow cytometry); format: cell-based; conditions: A549, 1 μg/ml, 37° C. for 90 minutes
Method: A total of 1×10^6 cells were reacted with the indicated antibody or ADC in 100 μL of FACS buffer for 60 minutes at 4° C. and washed to remove excess antibody or ADC. Cells were then transferred to 4° C. or 37° C. for 90 minutes. To determine the relative number of h7C3-3 or h7C3-3-ADC on the cell surface, cells were stained with saturating amounts of FITC (BD Pharmingen™) conjugated mouse anti-human IgG antibodies and incubated for additional 60 minutes on ice. Cells were washed again and followed by an additional incubation with 1 ml PBS containing 0.5 mg/mL propidium iodide at 4° C. for 10 minutes. Data were collected on 10,000 living cells by FACS (Bio-Red S3e cell sorter). Fluorescence intensity from channel FL-1 was calculated with Flow Jo flow cytometry analysis software. Preparation of anti-NTSR1 antibody-drug conjugates (ADCs)

[3] = test system: H1299; experiment: In vitro cell cytotoxicity assay (CellTiter-Glo); format: cell-based
Method: (§1) The number of living cells were determined using the CellTiter-Glo® Luminescent Cell Viability Assay (Promega G7571). Cells were plated in 96-well opaque Costar plates (Cat number 136101). In brief, 500-2500 cells in 90 μL media were added to each well in quadruplicate and allowed to adhere for 16 hours. Anti-NTSR1 (dose range: 0-500 nM), anti-NTSR1-MMAE (dose range: 0-500 nM) or Paclitaxel (dose range: 0-100 nM) were added in […] 72-120 hours, medium was removed, and 200 μL of CellTiter-Glo® viability reagent contain culture medium (1:1) was added to each well and placed on an orbital shaker in the dark for 2 minutes. The plate was allowed to sit at RT for 10 minutes before being read on a GloMax® Explorer Multimode Microplate Reader (GM3500).

[4] = test system: HA22T-Luc; experiment: In vitro cell cytotoxicity assay (CellTiter-Glo); format: cell-based
Method: as §1

[5] = test system: PC-3; experiment: In vitro cell cytotoxicity assay (CellTiter-Glo); format: cell-based
Method: as §1

[6] = test system: Mahlavu; experiment: In vitro cell cytotoxicity assay (CellTiter-Glo); format: cell-based
Method: as §1

[7] = test system: HA22T; experiment: In vitro cell cytotoxicity assay (CellTiter-Glo); format: cell-based
Method: as §1

[8] = test system: A549; experiment: In vitro cell cytotoxicity assay (CellTiter-Glo); format: cell-based
Method: as §1

[9] = target: T2, NTSR1 ECL2 peptide (Homo sapiens, UniProt P30989); experiment: Koff (s^-1)
Method: (§2) Table printed on a drawing sheet, FIG. 2
Head of the field: Koff (s^-1)
(§3) The patent's description of the figure: FIG. 2 is a graph showing affinity and kinetics data of h7C3-3. The binding affinity between h7C3-3 and NTSR1 ECL2 peptide was determined by surface plasmon resonance (SPR).
(§4) First copying reader's note: Table stands under the sensorgram plot headed h7C3-3 inside the same frame.
(§5) Where the first naming reader finds the target: description_of_the_figure: The binding affinity between h7C3-3 and NTSR1 ECL2 peptide was determined by surface plasmon resonance (SPR).

[10] = test system: cyclic ECL2 peptide of NTSR1; experiment: NTSR1-binding affinity ELISA (alanine scanning variants); design: species or system human; conditions: h7C3-2 variants
Sequence of cyclic ECL2 peptide of NTSR1 (P30989 206-234 limits assumed): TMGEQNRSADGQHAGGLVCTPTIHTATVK
Method: The NTSR1-binding capacity of different antibodies were measured by ELISA. Briefly, NeutrAvidin 96-well plates (Pierce Cat:15128) were coated with cyL2-Biotin peptides at a final concentration of 5 μg/ml at […]. On the following day, the coating solution was removed, and the plates were blocked with 5% (v/v) non-fat dry milk in phosphate buffer saline (PBS) for 1 hour. After washing with PBST, gradient concentrations of anti-NTSR1 antibodies were added in triplicate. After 1 hour of incubation, the plate was washed three times with PBST, followed by the addition of horseradish peroxidase (HRP)-conjugated goat anti-human IgG Fc antibody (100 μL) into each well for an additional hour at RT. Finally, 100 μL of tetramethylbenzidine (TMB) substrate was added into each well to produce color for visualization. After 2 minutes of incubation, 100 μL of 2M H2SO4 was used to stop the reaction. The absorbance of each well was read at 450 nm with a plate reader. Flow cytometry

[11] = target: T3, NTSR1 on A549 cells (Homo sapiens, UniProt P30989); experiment: Flow cytometry (FACS) binding of anti-NTSR1 antibodies on A549 cells
T3 construct: endogenous in cells; host or cells: A549 (NSCLC)
T3 sequence (P30989 whole entry): as the sequence (P30989 whole entry) above

[12] = test system: A549 cells; experiment: Internalization of NTSR-1 antibody (flow cytometry); format: cell-based; conditions: A549, 10 μg/ml
Method: NTSR-1 antibody was used for flow cytometry analysis to compare the NTSR1 expression level in different lung and HCC cell lines, including A549, H1299, HA22T and Mahlavu. A total of 1×10^6 cells were reacted with the h7C3-3 antibody in FACS buffer for 60 minutes at 4° C. and washed two times to remove excess antibody. Cells were then transferred to 4° C. or 37° C. for 0, 0.5, 2, 5, 24 hours and followed by an additional incubation with secondary anti-human IgG Fc-PE (BioLegend) antibody for 60 minutes at 4° C. Cells were washed again, and data were collected by BD LSRFortessa. Fluorescence intensity from channel FL-1 was calculated with Flow Jo flow cytometry analysis software.

[13] = target: T2, NTSR1 ECL2 peptide; experiment: Surface plasmon resonance with immobilized ECL2 peptide; conditions: SPR, 1:1 binding model
Method: The interaction of NTSR1-specific mAbs with extracellular loop 2 (ECL2) peptides of NTSR1 was measured by surface plasmon resonance using an Open SPR (Nicoya, Canada) instrument. Biotin-conjugated ECL2 peptides were immobilized on a streptavidin-coated sensor chip by injecting the peptides diluted in HBS-EP5 buffer saline (20 mM HEPES, 250 mM NaCl, 3 mM EDTA, 0.05% Tween 20 and 0.5% BSA, pH 7.4) at a concentration of 10 μg/ml at a flow rate of 30 μl/min. For kinetic experiments, NTSR1-specific mAbs diluted in HBS-EP5 at concentrations ranging from 24 to 1.5 nM were injected at a flow rate of 30 μl/min over the immobilized ECL2 peptides. Binding of the NTSR1-specific mAbs at different concentrations to the immobilized ECL2 peptides were analyzed using the TraceDrawer software (Nicoya, Canada). Association rate (ka), dissociation rate (kd), and affinity (KD) were calculated using global analysis, fitting the data to a simple 1:1 binding model.

[14] = target: T2, NTSR1 ECL2 peptide; experiment: Kon (M^-1s^-1)
Method: as §2
Head of the field: Kon (M^-1s^-1)
as §3, §4, §5

immunohistochemistry staining [1]: clustered and more intense
Koff [9]: 0.000134 s⁻¹
binding affinity to peptide compared with h7C3-2 (in words) [10]: higher binding affinity
FACS binding (%, 1 μg/ml) ([11]; A549 cells, antibody 1 μg/ml): 98.7%
FACS binding (%, 10 μg/ml) ([11]; A549 cells, antibody 10 μg/ml): 100%
binding on cell surface ([11]; A549 cells, one hour incubation at 4° C.): have binding efficiency on cell surface
affinity for NTSR1 on A549 cells compared with h7C3-2 ([11]; FACS, h7C3-2 variant): higher affinity
EC50 ([11]; relative mean fluorescence intensity (MFI) on A549 cells): 1.1 µg/mL
Kd [13]: 0.3 nM
Kon [14]: 441000 M⁻¹ s⁻¹
B1: h7C3-3: 7C3 variant bearing T28A in CDR H1, Y100H in CDR H3 and S97A in CDR L3 (antibody, V domains shown)
VH: QVQLQQPGSVLVRPGASVKLSCKASGYAFTSSWIHWAKQRPGQGLEWIGQIRPNSGNTYYNEKFKVKATLTVDTSSSTAYVDLSSLTSEDSAVYYCARYHYGFDYWGQGTLVTVSS
VL: DVLMTQTPLSLPVSLGDQASISCRSSQSIVHSNGNTYLEWYLQKPGQSPKLLIYKVSNRFSGVPDRFSGSGSGTDFTLKISRVEAEDLGVYYCFQGAHLPWTFGGGTKLEIKR
internalization efficiency [2]: internalized efficiently
IC50 [3]: > 500 nM
IC50 [4]: > 500 nM
IC50 [5]: > 500 nM
IC50 [6]: > 500 nM
IC50 [7]: > 500 nM
IC50 [8]: > 500 nM
mean fluorescence intensity (MFI) upon shifting cells from 4° C. to 37° C. (internalization) [12]: decreased gradually
